In US20240043504A1 (published 2024):
Substitutions are numbered along the chain they refer to. “And” between values parts separate entries of the source, which are not always exact repeats. Identical values can stand only once.

Key:
[1] = target: full-length SARS-CoV-2 spike protein (amino acids M1-T1273 of accession number YP_009724390.1) on Ju (SARS-CoV-2, UniProt P0DTC2 14-1273); test: cell-based or functional assay
[2] = target: receptor binding domain (RBD) portion of the SARS-CoV-2 Spike protein (amino acids Arg319-Phe541) ex (SARS-CoV-2)
[3] = target: SARS-CoV-2 spike protein (S-wt, Wuhan-Hu-1, NCBI Accession Number MN908947.3) on VSV pseudoparticles (SARS-CoV-2, UniProt P0DTC2 14-1273); test: cell-based or functional assay
[4] = target: Human SARS Coronavirus Spike S1 Subunit Protein (His Tag) (Sino 40150-V08B1) (Human SARS Coronavirus, UniProt P59594 14-667); test: Luminex bead binding, supernatant
[5] = target: Bt-SARS-CoV-2 Spike Protein (RBD)(R319-F541).mFc (mAb10621-L2) (SARS-CoV-2); test: Luminex bead binding, supernatant
[6] = target: SARS-CoV-2 Spike Protein (RBD)(R319-F541).hFc (mAb10622-L1) (SARS-CoV-2); test: Luminex bead binding, supernatant
[7] = target: SARS-CoV-2 Spike Protein (RBD)(R319-F541).mFc (mAb10621-L1) (SARS-CoV-2); test: Luminex bead binding, supernatant

B1: mAb10987 (antibody, V domains shown)
VH: QVQLVESGGGVVQPGRSLRLSCAASGFTFSNYAMYWVRQAPGKGLEWVAVISYDGSNKYYADSVKGRFTISRDNSKNTLYLQMNSLRTEDTAVYYCASGSDYGDYLLVYWGQGTLVTVSS
VL: QSALTQPASVSGSPGQSITISCTGTSSDVGGYNYVSWYQQHPGKAPKLMIYDVSKRPSGVSNRFSGSKSGNTASLTISGLQSEDEADYYCNSLTSISTWVFGGGTKLTVLG
[1]
  ADCP EC50 [M], Jurkat/hCD20/SARS-CoV-2 Spike cells: 6.33e-12 M
  ADCP Max (% ADCP), Jurkat/hCD20/SARS-CoV-2 Spike cells: 56.7%

B2: mAb10989 (antibody, V domains shown)
VH: QVQLVQSGAEVKKPGASVKVSCKASGYIFTGYYMHWVRQAPGQGLEWMGWINPNSGGANYAQKFQGRVTLTRDTSITTVYMELSRLRFDDTAVYYCARGSRYDWNQNNWFDPWGQGTLVTVSS
VL: B1 VL with G31T, Y51F, K55N, N62D, S82A, N91S, L93F, S95T, I96S, W99V
[2]
  IC50: 0.0591 nM and 0.0428 nM
[1]
  ADCP EC50 [M], Jurkat/hCD20/SARS-CoV-2 Spike cells: 4.86e-12 M
  ADCP Max (% ADCP), Jurkat/hCD20/SARS-CoV-2 Spike cells: 56%

B3: mAb10934 (antibody, V domains shown)
VH: not shown
VL: DIQMTQSPSSLSASVGDRVTITCQASQDIWNYINWYQQKPGKAPKLLIYDASNLKTGVPSRFSGSGSGTDFTFTISSLQPEDIATYYCQQHDDLPPTFGQGTKVEIKR
[3]
  IC50 (M), neutralization: 5.44e-11 M

B4: mAb10954 (antibody, V domains shown)
VH: EVQLVESGGGLVQPGGSLRLSCAASGITVSSNYMSWVRQAPGKGLEWVSLIYSGGSTYYADSVKGRFTISRDNSKNTLYLQMNSLRVEDTAVYYCARDHGMAAAGYNYWGQGTLVTVSS
VL: B3 VL with W30N, N31K, I33L, K55E, S76N, I83F, Y87F, H91Y, D93N, T97A
[3]
  IC50 (M), neutralization: 9.22e-11 M

B5: mAb10933 (antibody, V domains shown)
VH: QVQLVESGGGLVKPGGSLRLSCAASGFTFSDYYMSWIRQAPGKGLEWVSYITYSGSTIYYADSVKGRFTISRDNAKSSLYLQMNSLRAEDTAVYYCARDRGTTMVPFDYWGQGTLVTVSS
VL: B3 VL with W30T, I33L, D50A, K55E, S77G, H91Y, D93N, P96L, Q100G
[3]
  IC50 (M), neutralization: 4.28e-11 M

B6: mAb10933 (antibody, V domains shown)
VH: B5 VH
VL: B3 VL with W30T, I33L, D50A, K55E, S77G, H91Y, D93N, P96L, Q100G
[1]
  ADCP EC50 [M], Jurkat/hCD20/SARS-CoV-2 Spike cells: 5.79e-12 M
  ADCP Max (% ADCP), Jurkat/hCD20/SARS-CoV-2 Spike cells: 53.4%

B7: mAb10934 (antibody, V domains shown)
VH: not shown
VL: B3 VL
[2]
  IC50: 0.066 nM and 0.0597 nM
[1]
  ADCP EC50 [M], Jurkat/hCD20/SARS-CoV-2 Spike cells: 2.72e-12 M
  ADCP Max (% ADCP), Jurkat/hCD20/SARS-CoV-2 Spike cells: 40.1%

B8: mAb10956 (antibody, V domains shown)
VH: EVQLVESGGGLVQPGGSLRLSCAASGLTVSSNYMSWVRQAPGKGLEWVSVIYSGGSTFYADSVKGRFTISRDNSKNTLYLQMNSLRAEDTAVYYCARDLIKYGMDVWGQGTTVTVSS
VL: not shown
[4]
  Binding signal (MFI): 16 MFI

B9: mAb10957 (antibody, V domains shown)
VH: B8 VH with L27V, Y79F, A87I, I100G, K101P
VL: DIQLTQSPSFLSASVGDRVTITCRASQGISSYLAWYQQKPGKAPKLLIYAASTLQSGVPSRFSGSGSGTQFILTISSLQPEDFATYYCQQLNSYPGFTFGPGTKVDIKR
[4]
  Binding signal (MFI): 16 MFI

B10: mAb10936 (antibody, V domains shown)
VH: QVQLVESGGGVVQPGRSLRLSCAASGFTFRNYGMHWVRQAPGKGLEWVSVIWYDGSNRYYADSVKGRFTISRDTSKNTLYLQMNSLRAEDTAVYYCARDPPITGTTGGDAFDIWGQGTMVTVSS
VL: not shown
[3]
  IC50 (M), neutralization: 1.11e-10 M

B11: mAb10986 (antibody, V domains shown)
VH: EVQLVESGGGLVQPGGSLRLSCAASEFTVSSNYMSWVRQAPGKGLEWVSVIYSGGSTFYADSVKGRFTISRDNSKNTLYLQMNSLRAEDTAVYYCARALPYGDLHFDYWGQGTLVTVSS
VL: QSVLTQPPSVSGAPGQRVTISCTGSSSNIGTGYDVHWYQQLPGTAPKLLIYGNTNRPSGVPDRFSGSKSGTSASLAITGLQAEDEADYYCQSYDSSLSDSYVFGTGTKVTVLG
[3]
  IC50 (M), neutralization: 9.91e-11 M

B12: mAb10984 (antibody, V domains shown)
VH: EVQLVESGGGLVQPGGSLRLSCAASGLTVNRNYMSWVRQAPGKGLEWVSLIYSGGSTYYADSVKGRFTISRDNSKNTLYLQMNSLRLEDTAVYYCARGELGIPYGMDVWGQGTTVTVSS
VL: QSVLTQPPSVSAAPGQKVTISCSGSSSNIGNNYVSWYQQLPGTAPKLLIYDNNKRPSGIPDRFSGSKSGTSATLGITGLQTGDEADYYCGTWDSSLSAGVFGGGTKLTVLG
[3]
  IC50 (M), neutralization: 9.73e-11 M

B13: mAb11006 (antibody, V domains shown)
VH: EVQLVESGGGLVQPGGSLRLSCAASGFIVSRNYMSWVRQAPGKGLEWVSVIYSGGSTFYADSVKGRFTISRHNSKNTLYLQMNSLKAEDTAVYYCARELRGYFDYWGQGTLVTVSS
VL: DIQLTQSPSFLSASVGDRVTITCWASQGISSYLAWYQQKPGKAPKLLIYAASTLQSGVPSRFSGSGSGTEFTLTISSLQPEDFATYYCQLLNSYPYTFGQGTKLEIK
[5]
  Binding signal (MFI): 1400 MFI
[6]
  Binding signal (MFI): 3980 MFI
[7]
  Binding signal (MFI): 2870 MFI

B14: mAb10920 (antibody, V domains shown)
VH: QVQLVESGGGVVQPGRSLRLSCAASGFTFSYYGMHWVRQAPGKGLEWVAVIWYDGSNKFYADSVKGRFTISRDNSKNTLYLQMNSLRAEDTAVYYCAAARPGYYYGMDVWGQGTTVTVSS
VL: DIQMTQSPSSLSASVGDRVTITCRASQGISNYLAWFQQKPGKAPNSLIYAASSLQRGVPSKFSGSGSGTDFTLTISSLQPEDFATYYCQQYNSYPRTFGQGTKVEIKR
[3]
  IC50 (M), neutralization: 2.64e-10 M
